According to US20260176373A1 (BRIGHT BIOLOGICS, published 2026):
Values belong to the binder of their own block, whether it stands above or below them.

Columns and labels:
[1] = target: T1, human HER2 (human epidermal growth factor receptor 2) (human, UniProt P04626 23-1255); test: cell-based or functional assay
[2] = target: T1, human HER2 (human epidermal growth …); test: flow cytometry whole cell binding, CHO-h-HER2 stable cells
Description: (§1) Binding of bivalent anti-HER2 VHH-Fc clones to human HER2 stably transfected CHO cells (CHO-h-HER2 stable cells) was determined by flow cytometry whole cell binding (WCB) assays. Briefly, antibodies were incubated at different concentrations with CHO-h-HER2 stable cells (0.2×10⁶/ml) in 100 μl/well in 96-well plates in FACS buffer (PBS with 1.0% FBS) for 30 min. After washing, Alexa Fluor 488 conjugated anti-human IgG Fc secondary antibody (Alexa Fluor® 488 AffiniPure Goat Anti-Human IgG, Fcγ fragment specific, Jackson labs, 1:750 dilution) was added, and incubated for 30 min. After washing, Median Fluorescence Intensity (MFI) was measured using CytoFlex (Beckman Coulter) by gating live cell population with FITC channel. Whole cell binding of VHH-Fc clones to endogenously expressed HER2 in human cancer cells was also determined using N87 (Stomach cancer cell line) and SKBR3 (Breast cancer cell line) cells, both of which are cancer cells with high HER2 expressions.

[3] = target: T2, human HER2-Domain II-his protein (human, UniProt P04626 196-319); test: ELISA, plate coated with human HER2-Domain II-his
T2 construct: also called HER2 domain II fragment (Ser196-Asn319); not shown: his tag
Description: (§2) X axis is values of antibody concentration in nanomolar. Y axis is values of OD at 450 nm.
(§3) Binding of anti-HER2 VHH-Fc clones to different domains of human HER2 ECD was determined by ELISA binding assays using his-tagged HER2 domain fragments. Human HER2 domain IV fragment (Pro489-Cys630) was purchased from Sinobiological, domain II+III+IV fragment (Ser196-Cys630) & domain II fragment (Ser196-Asn319) were made.

[4] = target: T1, human HER2 (human epidermal growth …); test: cell-based or functional assay; remark: listed apart in the source
[5] = target: T3, human HER2-Domain IV-his protein (human, UniProt P04626 489-630); test: ELISA, plate coated with human HER2-Domain IV-his
T3 construct: also called HER2 domain IV fragment (Pro489-Cys630); not shown: his tag
Description: as §2, §3

[6] = target: T1, human HER2 (human epidermal growth …); test: flow cytometry whole cell binding, N87 cells (endogenous HER2)
Description: as §1

mouse TROP2 = target: T4, mouse TROP2 (mouse, UniProt Q8BGV3 25-317); test: flow cytometry whole cell binding, m-TROP2 stably transfected 293T cells
T4 construct: whole, on cells; also called m-TROP2
T4 sequence (looked up): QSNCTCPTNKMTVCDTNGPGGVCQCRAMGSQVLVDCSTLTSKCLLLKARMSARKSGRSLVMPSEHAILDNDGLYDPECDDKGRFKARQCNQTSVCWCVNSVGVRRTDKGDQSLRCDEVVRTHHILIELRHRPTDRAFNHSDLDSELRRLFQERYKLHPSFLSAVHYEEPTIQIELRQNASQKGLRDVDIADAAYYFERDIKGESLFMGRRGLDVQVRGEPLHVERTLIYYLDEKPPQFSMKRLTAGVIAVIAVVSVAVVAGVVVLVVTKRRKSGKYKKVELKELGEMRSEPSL

[7] = target: T5, human TROP2 (Trophoblast cell-surface antigen 2) (human, UniProt P09758 27-323); test: flow cytometry whole cell binding, SKBR3
T5 chain: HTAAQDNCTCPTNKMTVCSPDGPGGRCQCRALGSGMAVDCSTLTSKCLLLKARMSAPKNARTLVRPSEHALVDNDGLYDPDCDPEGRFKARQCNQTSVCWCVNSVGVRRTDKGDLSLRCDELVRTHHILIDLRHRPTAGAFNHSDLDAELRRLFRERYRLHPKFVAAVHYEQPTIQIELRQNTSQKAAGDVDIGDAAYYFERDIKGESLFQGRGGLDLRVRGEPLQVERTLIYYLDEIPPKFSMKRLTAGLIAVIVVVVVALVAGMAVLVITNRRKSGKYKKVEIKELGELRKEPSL

[8] = target: T6, human TROP2 (Trophoblast cell-surface antigen 2) (human, UniProt P09758 27-323); test: flow cytometry whole cell binding, h-TROP2 stably transfected CHO cells
T6 construct: whole, on cells; also called TACSTD2; h-TROP2
T6 sequence (looked up): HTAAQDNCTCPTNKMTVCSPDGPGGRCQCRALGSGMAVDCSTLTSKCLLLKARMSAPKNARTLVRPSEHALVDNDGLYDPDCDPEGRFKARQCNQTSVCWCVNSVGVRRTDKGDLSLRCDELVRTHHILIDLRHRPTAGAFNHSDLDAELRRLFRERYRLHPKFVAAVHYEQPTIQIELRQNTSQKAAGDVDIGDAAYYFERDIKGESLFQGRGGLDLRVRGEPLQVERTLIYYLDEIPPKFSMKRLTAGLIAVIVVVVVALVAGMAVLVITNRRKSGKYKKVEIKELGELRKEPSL
Description: Binding of bivalent anti-TROP2 VHH-Fc clones to human TROP2 in human TROP2 stably transfected CHO cells (CHO-h-TROP2 stable cells) were determined by flow cytometry whole cell binding (WCB) assays. Briefly, antibodies were incubated at different concentrations with CHO-h-TROP2 stable cells (0.2×10⁶/ml) in 96-well plates (100 μl/well) in FACS buffer for 30 min. After washing, Alexa Fluor 488 conjugated anti-human IgG Fc secondary antibody was added, and incubated for 30 min. After washing, MFI was measured using CytoFlex by gating live cell population with FITC channel. EC50 of binding was calculated using GraphPad Prism7.0.

[9] = target: T6, human TROP2 (Trophoblast cell-surface …); test: flow cytometry whole cell binding, SKBR3 cells
[10] = target: T6, human TROP2 (Trophoblast cell-surface …); test: flow cytometry whole cell binding, HCC202 cells
[11] = target: T6, human TROP2 (Trophoblast cell-surface …); test: flow cytometry whole cell binding, NCI-H441 cells
[12] = target: T6, human TROP2 (Trophoblast cell-surface …); test: cell-based or functional assay

IC50 (nM) in AU-565 cells, anti-proliferation [1]: 0.84 nM
EC50 [2]: 2.09 nM
binding result [3]: no binding
binding result [5]: no binding
EC50 [6]: 3.14 nM
B1: anti-HER2 VHH-Fc clone 11D5 (bivalent VHH-Fc of Example 2) (antibody, V domains shown)
VH: QVQLVESGGGVVQPGRSLRLSCAASGSTFSSLAMHWVRQAPGKERELVAAISYSGGYTYYADSVKGRFTISRDNSKNTLYLQMNSLRAEDTAVYYCAASSIFIGAYDYWGQGTLVTVSS
notes: not shown: human IgG1 Fc region: hinge region and constant domains CH2 and CH3
IC50 (nM) in AU-565 cells, killing in the presence of PBMCs [4]: 0.38 nM
IC50 (nM) in SKBR3 cells, killing in the presence of PBMCs [4]: 0.29 nM

EC50 (mouse TROP2): 760 nM
EC50 [7]: 1.76 nM
EC50 [8]: 1.46 nM
B2: anti-TROP2 VHH-Fc clone Alpaca 3H9 (antibody, human IgG1, V domains shown)
VH: LVQLVESGGGLVQAGGSQRLSCAVSGRAFAYYAMGWFRQAPGKEREFVAAIAGSGDSTYYADSVKGRFTISRDYAKNTNYLQMNSLKPEDTAVYYCAAAGGTFYSGTAVATRSSQYDYWGQGTQVTVSS
notes: domain: hinge region and constant domains (CH2 and CH3); bivalent VHH-Fc, human IgG1 Fc; also called 3H9-Fc

EC50 [9]: 141 nM
EC50 [10]: 3.5 nM
EC50 [11]: 1.6 nM
B3: 1H11-hv8_Fc (antibody, V domains shown)
VH: EVQLVESGGGLVQPGGSLRLSCAASGGTFSRYIMGWFRQAPGKEREFVSTISGSGGSTYYADSVKGRFTISRDNSKNTLYLQMNSLRAEDTAVYYCASTFYSTTYVAQRDARDYAYWGQGTQVTVSS
notes: monospecific bivalent VHH-Fc with C220S mutation in the hinge region; also called monospecific anti-TROP2 (1H11-hv8)
IC50, nM, Killing of HCC202 cells by 2nd Ab-MMAE [12]: 0.2 nM
IC50, nM, Killing of NCI-H441 cells by 2nd Ab-MMAE [12]: 0.15 nM
IC50, nM, Killing of SKBR3 cells by 2nd Ab-MMAE [12]: 0.48 nM
